Key:
Experiment in all cases: ELISA signal over HTRF expression signal, P. pastoris
Conditions in all cases: remark: other sources report otherwise
84E10 = biological target: 84E10
96H8 = biological target: 96H8
7B6 = biological target: 7B6
2C4 = biological target: 2C4
56D2 = biological target: 56D2
1F2 = biological target: 1F2
80F10 = biological target: 80F10
11H6 = biological target: 11H6
6A1 = biological target: 6A1
87H5 = biological target: 87H5
75G5 = biological target: 75G5
71A4 = biological target: 71A4
75H8 = biological target: 75H8
74D7 = biological target: 74D7
35H3 = biological target: 35H3
36E4 = biological target: 36E4
72D4 = biological target: 72D4
48B10 = biological target: 48B10
36H2 = biological target: 36H2
56F4 = biological target: 56F4
86G2 = biological target: 86G2
63D3 = biological target: 63D3
69D2 = biological target: 69D2
50G10 = biological target: 50G10
4C1 = biological target: 4C1
51G3 = biological target: 51G3
89F11 = biological target: 89F11
79C2 = biological target: 79C2
11F4 = biological target: 11F4
48B11 = biological target: 48B11
91F10 = biological target: 91F10
55H2 = biological target: 55H2
71H2 = biological target: 71H2
71E7 = biological target: 71E7
11B4 = biological target: 11B4
2D9 = biological target: 2D9
88C5 = biological target: 88C5
7D9 = biological target: 7D9

B1: CR6261 (antibody, V domains shown)
VH: EVQLVESGAEVKKPGSSVKVSCKASGGPFRSYAISWVRQAPGQGPEWMGGIIPIFGTTKYAPKFQGRVTITADDFAGTVYMELSSLRSEDTAMYYCAKHMGYQVRETMDVWGKGTTVTVSS
VL: QSVLTQPPSVSAAPGQKVTISCSGSSSNIGNDYVSWYQQLPGTAPKLLIYDNNKRPSGIPDRFSGSKSGTSATLGITGLQTGDEANYYCATWDRRPTAYVVFGGGTKLTVLG
In the case of B1, the fold increase of ratio over parental SEQ ID NO: 6 (84E10) is reported as 5.37, the ratio (binding signal/HTRF signal) (84E10) is reported as 31.9 and the fold increase of ratio over parental SEQ ID NO: 6 (96H8) is reported as 4.8. For the same binder, the ratio (binding signal/HTRF signal) (96H8) was 28.5, the fold increase of ratio over parental SEQ ID NO: 6 (7B6) was 1.66 and the ratio (binding signal/HTRF signal) (7B6) was 9.84. The fold increase of ratio over parental SEQ ID NO: 6 (2C4) was 4.29, the ratio (binding signal/HTRF signal) (2C4) was 25.5 and the fold increase of ratio over parental SEQ ID NO: 6 (56D2) was 2.3. For the same binder, the ratio (binding signal/HTRF signal) (56D2) was 13.7, the fold increase of ratio over parental SEQ ID NO: 6 (1F2) was 2.04 and the ratio (binding signal/HTRF signal) (1F2) was 12.1. It also gave a fold increase of ratio over parental SEQ ID NO: 6 (80F10) of 1.78, a ratio (binding signal/HTRF signal) (80F10) of 10.6 and a fold increase of ratio over parental SEQ ID NO: 6 (11H6) of 7.87. The ratio (binding signal/HTRF signal) (11H6) was 46.7, the fold increase of ratio over parental SEQ ID NO: 6 (6A1) was 4.63 and the ratio (binding signal/HTRF signal) (6A1) was 27.5. For the same binder, the fold increase of ratio over parental SEQ ID NO: 6 (87H5) was 1.64, the ratio (binding signal/HTRF signal) (87H5) was 9.77 and the fold increase of ratio over parental SEQ ID NO: 6 (75G5) was 6.38. For the same binder, the ratio (binding signal/HTRF signal) (75G5) was 37.9, the fold increase of ratio over parental SEQ ID NO: 6 (71A4) was 10.2 and the ratio (binding signal/HTRF signal) (71A4) was 60.5. The fold increase of ratio over parental SEQ ID NO: 6 (75H8) was 1.73, the ratio (binding signal/HTRF signal) (75H8) was 10.2 and the fold increase of ratio over parental SEQ ID NO: 6 (74D7) was 3.27. The ratio (binding signal/HTRF signal) (74D7) was 19.4, the fold increase of ratio over parental SEQ ID NO: 6 (35H3) was 2.94 and the ratio (binding signal/HTRF signal) (35H3) was 17.4. The fold increase of ratio over parental SEQ ID NO: 6 (36E4) was 2.07, the ratio (binding signal/HTRF signal) (36E4) was 12.3 and the fold increase of ratio over parental SEQ ID NO: 6 (72D4) was 6.25. The ratio (binding signal/HTRF signal) (72D4) was 37.1, the fold increase of ratio over parental SEQ ID NO: 6 (48B10) was 3.16 and the ratio (binding signal/HTRF signal) (48B10) was 18.8. For the same binder, the fold increase of ratio over parental SEQ ID NO: 6 (36H2) was 1.95, the ratio (binding signal/HTRF signal) (36H2) was 11.6 and the fold increase of ratio over parental SEQ ID NO: 6 (56F4) was 3.21. It also gave a ratio (binding signal/HTRF signal) (56F4) of 19.1, a fold increase of ratio over parental SEQ ID NO: 6 (86G2) of 1.93 and a ratio (binding signal/HTRF signal) (86G2) of 11.5. For the same binder, the fold increase of ratio over parental SEQ ID NO: 6 (63D3) was 1.87, the ratio (binding signal/HTRF signal) (63D3) was 11.1 and the fold increase of ratio over parental SEQ ID NO: 6 (69D2) was 2.19. For the same binder, the ratio (binding signal/HTRF signal) (69D2) was 13, the fold increase of ratio over parental SEQ ID NO: 6 (50G10) was 4.7 and the ratio (binding signal/HTRF signal) (50G10) was 27.9. For the same binder, the fold increase of ratio over parental SEQ ID NO: 6 (4C1) was 3.92, the ratio (binding signal/HTRF signal) (4C1) was 23.3 and the fold increase of ratio over parental SEQ ID NO: 6 (51G3) was 9.97. The ratio (binding signal/HTRF signal) (51G3) was 59.2, the fold increase of ratio over parental SEQ ID NO: 6 (89F11) was 2.42 and the ratio (binding signal/HTRF signal) (89F11) was 14.4. It also gave a fold increase of ratio over parental SEQ ID NO: 6 (79C2) of 8.62, a ratio (binding signal/HTRF signal) (79C2) of 51.2 and a fold increase of ratio over parental SEQ ID NO: 6 (11F4) of 2.54. For the same binder, the ratio (binding signal/HTRF signal) (11F4) was 15.1, the fold increase of ratio over parental SEQ ID NO: 6 (48B11) was 3.41 and the ratio (binding signal/HTRF signal) (48B11) was 20.3. It also gave a fold increase of ratio over parental SEQ ID NO: 6 (91F10) of 1.78, a ratio (binding signal/HTRF signal) (91F10) of 10.6 and a fold increase of ratio over parental SEQ ID NO: 6 (55H2) of 3.28. It also gave a ratio (binding signal/HTRF signal) (55H2) of 19.5, a fold increase of ratio over parental SEQ ID NO: 6 (71H2) of 11.2 and a ratio (binding signal/HTRF signal) (71H2) of 66.3. For the same binder, the fold increase of ratio over parental SEQ ID NO: 6 (71E7) was 3.19, the ratio (binding signal/HTRF signal) (71E7) was 19 and the fold increase of ratio over parental SEQ ID NO: 6 (11B4) was 3.23. For the same binder, the ratio (binding signal/HTRF signal) (11B4) was 19.2, the fold increase of ratio over parental SEQ ID NO: 6 (2D9) was 2.76 and the ratio (binding signal/HTRF signal) (2D9) was 16.4. The fold increase of ratio over parental SEQ ID NO: 6 (88C5) was 5.94, the ratio (binding signal/HTRF signal) (88C5) was 35.3 and the fold increase of ratio over parental SEQ ID NO: 6 (7D9) was 2.07. It also gave a ratio (binding signal/HTRF signal) (7D9) of 12.3.
